According to patent US20090143241A1 (PENN STATE RESEARCH FOUNDATION, published 2009):
Where no end group is shown, it is not given here.

B1: cyclic XB, RGGRPALRVVK (Table 6) (peptide)
peptide: RGGRPALRVVK
modifications: also: cyclized, ring type not given here
notes: possibly the same preparation as m6; also called cyclic XB peptide
B2: linear XB peptide, CRGGRPALRVVK (peptide)
peptide: CRGGRPALRVVK
notes: The text calls XB the 11 C-terminal residues of E. coli SspB; also called linXB
B3: Con62, cyclic SGWPYKWM peptide (peptide)
peptide: SGWPYKWM
modifications: head-to-tail cyclized (cyclic peptide)
notes: Arbitrary cyclic peptide from the SGWX5 library, negative control; also called arbitrary cyclic peptide
B4: ICP1, cyclic SGSKGVLPL peptide (peptide)
peptide: SGSKGVLPL
modifications: head-to-tail cyclized (cyclic peptide)
notes: Chemically synthesized linear, circularized and HPLC purified; also called IXP3

Assays:
[1] = molecular target: T1, ClpXP protease (E. coli ClpX6 with ClpP14) (E. coli, UniProt P0A6H1 1-424; P0A6G7 15-207); experiment: GFP-tag proteolysis by ClpXP in the presence of SspB
T1 construct: Purified recombinant proteins mixed in the assay; also called SspB-ClpXP (when SspB is added); not shown: N-terminal His6 tag from pET28a; C-terminal His6 tag from pQE70
T1 sequence (P0A6H1 whole entry, chain 1 of 2): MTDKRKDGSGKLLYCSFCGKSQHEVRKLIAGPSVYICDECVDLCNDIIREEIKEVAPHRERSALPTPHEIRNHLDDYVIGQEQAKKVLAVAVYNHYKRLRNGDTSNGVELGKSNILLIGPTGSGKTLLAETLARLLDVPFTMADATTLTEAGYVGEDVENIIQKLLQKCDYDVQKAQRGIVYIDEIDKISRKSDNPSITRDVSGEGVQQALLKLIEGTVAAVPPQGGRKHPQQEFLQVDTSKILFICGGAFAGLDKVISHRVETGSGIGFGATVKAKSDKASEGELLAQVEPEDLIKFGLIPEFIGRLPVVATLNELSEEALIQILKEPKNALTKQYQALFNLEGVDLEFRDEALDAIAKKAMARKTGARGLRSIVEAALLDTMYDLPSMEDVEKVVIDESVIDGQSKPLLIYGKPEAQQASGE
T1 sequence (P0A6G7 15-207, chain 2 of 2): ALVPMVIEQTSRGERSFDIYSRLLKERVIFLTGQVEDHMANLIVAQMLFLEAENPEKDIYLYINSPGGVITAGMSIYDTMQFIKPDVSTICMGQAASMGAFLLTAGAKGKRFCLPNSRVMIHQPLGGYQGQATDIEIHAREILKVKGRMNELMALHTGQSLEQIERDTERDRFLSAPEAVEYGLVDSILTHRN

[2] = molecular target: T1, ClpXP protease (E. coli ClpX6 with …); experiment: kinetic assays with purified peptides and E. coli proteins (GFP-tag proteolysis by ClpXP with SspB)
[3] = molecular target: T1, ClpXP protease (E. coli ClpX6 with …); experiment: kinetic assays with purified peptides and E. coli proteins (GFP-tag proteolysis by ClpXP with SspB); uncompetitive model
[4] = molecular target: T1, ClpXP protease (E. coli ClpX6 with …); experiment: cell-based or functional assay
[5] = molecular target: T1, ClpXP protease (E. coli ClpX6 with …); experiment: continuous fluorimetric assay of GFP-tag proteolysis by ClpXP, with SspB
[6] = molecular target: T1, ClpXP protease (E. coli ClpX6 with …); experiment: continuous fluorimetric assay of GFP-tag proteolysis by ClpXP, no SspB
[7] = molecular target: T1, ClpXP protease (E. coli ClpX6 with …); experiment: GFP-tag proteolysis by ClpXP without SspB against with SspB

| Binder | Ki [5] [µM] | Ki [6] [µM] | other results |
| --- | --- | --- | --- |
| B1 |  |  | fold lower KI than the linear XB peptide [1]: 7 fold; Ki [2]: 8 µM |
| SGWYGRRH (head-to-tail cyclized (cyclic peptide), also called cyclic IXP1) [IXP1, cyclic SGWYGRRH peptide] |  |  | Ki [3]: 136 µM; half-life of λ O with ClpXP and 100 µM IXP1 [4]: 1.22 h |
| B2 | 64 | > 1000 | Ki [1]: 6.4 µM; Ki [2]: 56 µM |
| B3 |  | > 1000 |  |
| CRGGRPALRVVK (also: cyclized in vitro, ring type not given here) [cycXB, cyclic XB peptide [CRGGRPALRVVK] (Table 4)] | 8 | 6 | Ki [1]: 8.1 µM; fold lower KI than the linear XB peptide [1]: 7 fold |
| SGWRVQGPL (head-to-tail cyclized (cyclic peptide), also called IXP4) [ICP2, cyclic SGWRVQGPL peptide] | 21 | > 1000 | fold higher KI without SspB [7]: ≥ 10 fold |
| B4 | 25 | 28 |  |
